Measured values as given in patent EP2112166B1.

Columns and labels:
[1] = molecular target: CTLA-4-Ig(G4) (Repligen) (UniProt P16410); test: competition ELISA: CTLA-4-Ig(G4) binding to coated B7.2-Ig(G1)
[2] = molecular target: CTLA-4-Ig(G4) (Repligen) (UniProt P16410); test: competition ELISA: CTLA-4-Ig(G4) binding to coated B7.1-Ig(G1)
[3] = molecular target: CTLA-4-IgG1 fusion protein (made in-house) (human) (UniProt P16410); test: BIAcore; CTLA-4-Ig on chip, 878.7 RU
[4] = molecular target: CTLA-4-IgG1 fusion protein (made in-house) (human) (UniProt P16410); test: BIAcore; CTLA-4-Ig on chip, 457.2 RU
[5] = molecular target: CTLA-4-IgG1 fusion protein (made in-house) (human) (UniProt P16410); test: BIAcore; CTLA-4-Ig on chip, 504.5 RU

B1: 4.10.2 antibody (antibody, from another filing, human IgG2, V domains shown)
VH: GVVQPGRSLRLSCVASGFIFSSHGIHWVRQAPGKGLEWVAVIWYDGRNKDYADSVKGRFTISRDNSKNTLYLQMNSLRAEDTAVYYCARVAPLGPLDYWGQGTLVTVSS
VL: SPGTLSLSPGERATLSCRASQSISSNFLAWYQQKPGQAPRLLIYRPSSRATGIPDSFSGSGSGTDFTLTISRLEPEDFALYYCQQYGTSPFTFGPGTKVDIKR
Work on B1 yielded an IC50 [1] of 1.5 nM, an IC50 [2] of 3.39 nM and a Ka [3] of 3.9e+09 M⁻¹. The Kd [3] was 0.254 nM, the koff [3] was 0.000253 s⁻¹ and the kon [3] was 1e+06 M⁻¹ s⁻¹. For the same binder, the Ka [4] was 1.4e+09 M⁻¹, the Kd [4] was 0.721 nM and the koff [4] was 0.000505 s⁻¹. The kon [4] was 700000 M⁻¹ s⁻¹, the Ka [5] was 2.2e+09 M⁻¹ and the Kd [5] was 0.455 nM. For the same binder, the koff [5] was 0.00043 s⁻¹ and the kon [5] was 940000 M⁻¹ s⁻¹.
